Assay [1] addresses Bacteroidetes bacterium GWA2_30_7 CuZn superoxide dismutase (BbCuZnSOD) (Bacteroidetes bacterium GWA2_30_7). Briefly: SEC-MALS; size-exclusion chromatography coupled static light scattering (SEC-SLS), masses from refractive index; 20 mM Tris-HCl pH 7.4, 150 mM NaCl. For orientation: Size exclusion chromatography separates by hydrodynamic size, large species first.
The target of assay [2] is Rickettsiales bacterium TMED131 CuZn superoxide dismutase (RbCuZnSOD) (Rickettsiales bacterium TMED131). Described as above.

As a reminder, the stoichiometry N is a count of units in the complex or per binding partner. Regarding “Bacteroidetes bacterium GWA2_30_7 CuZn superoxide dismutase (BbCuZnSOD) (enzyme)”, the stoichiometry N in assay [1] was 2.

For the substance “Rickettsiales bacterium TMED131 CuZn superoxide dismutase (RbCuZnSOD) (enzyme)”, the stoichiometry N in assay [2] was determined as 2.

These data come from paper PMC8382915.
